Assay [1] concerns the target myelin oligodendrocyte glycoprotein 35-55 peptide (MOG35-55) in the context of I-A(b) (mouse; murine) (UniProt P14434).
In assay [2] the target is ovalbumin 323-329 peptide (OVA323-339) in the context of I-A(b) (murine) (UniProt P01012).
For assay [3] the target is unchanged. The source holds these as a separate data set.
Assay [4] addresses myelin oligodendrocyte glycoprotein 35-55 peptide (MOG35-55) in the context of I-A(b) (mouse; murine) (UniProt P14434). The source holds these as a separate data set.

Turning to OT-II TCR, the Cytotoxicity (specific lysis of peptide-pulsed splenocytes, in vitro, 3 days) stood at 4% in assay [1] and 32% in assay [2]. For the same substance, the Ratio of MOG/OVA pulsed APC (in vivo cytotoxicity, spleen after 48 hours) (ratio of MOG/OVA pulsed APC) in assay [3] worked out at 6.2.

As to 2D2 TCR, the Cytotoxicity (specific lysis of peptide-pulsed splenocytes, in vitro, 3 days) in assay [1] was determined as 17%; in assay [2] it was 3%. Besides, the Ratio of MOG/OVA pulsed APC (in vivo cytotoxicity, spleen after 48 hours) (ratio of MOG/OVA pulsed APC) in assay [4] was found to be 0.7.

These data come from patent US20210061875A1.
